Literature values, collected in PMC10671529.

Experiments:
HigB2 (Vibrio cholerae) = HigB2 (Vibrio cholerae) (UniProt Q9KMA6)
Im9 (Escherichia coli) = Im9 (Escherichia coli) (UniProt P13479)
Chain of UniProt P13479 (P13479 whole entry): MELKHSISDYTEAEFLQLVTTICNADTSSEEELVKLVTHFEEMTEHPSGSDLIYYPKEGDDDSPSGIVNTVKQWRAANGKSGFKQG

Chain of UniProt Q9KMA6 (Q9KMA6 whole entry): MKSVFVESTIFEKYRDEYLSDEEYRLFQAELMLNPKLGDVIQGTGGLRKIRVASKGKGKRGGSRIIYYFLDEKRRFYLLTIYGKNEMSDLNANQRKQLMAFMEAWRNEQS

Substance | Kd (HigB2 (Vibrio cholerae)) | Kd (Im9 (Escherichia coli))
HigA2 (from UniProt Q9KMA5) | 3.1 pM | 
colicin E9 DNase (from UniProt P09883) |  | 0.023 pM
